B1: PDZK1 (parent)
chain: QKEQGLSDNILSPVMNGGVQTWTQ
B2: IQUB (parent)
chain: EADYEDDSKIAFLMQLQDIQYLTE

Variants of: B1
Assay: protein stability index of a GFP-peptide fusion (GPS, HEK-293T) (PSI 1-6); higher = more stable
Details: c terminus: a fixed tail appended
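Further: lentivirally expressed fusions sorted by FACS into six bins by GFP to DsRed ratio, PSI derived from sequencing read proportions per bin multiplied by bin number.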

Protein stability index: each site, then its substitutions
T23: K 3.39 | P 4.25 | D 3.67 | Y 3.05 | M 3.74 | I 4 | N 3.12 | Q 2.16 | F 3.02 | S 3.43 | R 3.42 | V 1.56 | G 3.5 | W 2.96
V14: Q 2.9 | Y 1.94 | T 2.93 | A 3.29 | S 2.91 | G 1.5 | P 2.47 | E 2.78 | K 2.54 | H 2.46 | I 2.4 | M 2.65 | C 3.74 | N 2.77 | R 2.64
Q20: S 2.88 | V 2.67 | Y 2.68 | D 3.29 | W 3.36 | A 3.69 | N 3.73 | E 1.58 | T 3 | P 3.07 | G 3.02 | C 2.16 | L 2.14 | K 3.8 | I 2.49 | F 2.68
V19: M 1.9 | T 3.09 | H 2.58 | N 2.6 | K 2.16 | G 2.9 | I 2.17 | Y 1.86 | P 3.44 | E 3.7 | F 2.42 | D 4.3 | R 1.85 | A 2.99
Q24: C 2.14 | S 1.68 | G 3.58 | R 3.35 | D 3.13 | V 2.72 | F 1.78 | E 3.43 | H 2.84 | K 3.55 | M 2.26 | I 2.36 | P 4.43 | T 3.66
G18: D 3.35 | R 1.84 | K 1.53 | I 2.61 | S 2.65 | M 2.58 | P 3.46 | F 2.45 | N 2.67 | C 2.54 | W 2.33 | H 2.62 | E 2.56 | Y 2.45 | A 3.46 | L 2.58 | V 2.47
P13: C 1.87 | H 1.96 | N 3.05 | V 2.41 | K 2.47 | T 2.34 | A 2.06 | R 2.09 | S 2.37 | F 1.56 | Y 1.9 | Q 2.5 | I 1.59
G17: Y 2.5 | T 2.25 | A 3.96 | W 1.85 | I 3.36 | K 2.13 | E 3.27 | F 2.19 | V 3.6 | H 1.91 | S 3.31 | R 2.04 | L 2.8 | M 2.36
L11: M 3.25 | V 3.62 | K 1.64 | Y 2.5 | R 2.73 | Q 2 | P 2.48 | W 2.33
W22: H 4.59 | F 3.97 | A 4.41 | E 4.3 | S 5.05 | I 4.88 | Y 4.09 | Q 5.24 | P 5.07 | M 4.55 | C 4.8 | N 5.08 | R 5.04 | K 4.93 | D 4.78
N16: E 3.41 | R 2.34 | F 2.61 | H 2.81 | P 2.12 | I 2.89 | Q 1.72 | S 2.81 | C 2.75 | L 2.47 | K 1.49 | D 3.71 | Y 2.45
T21: L 2.68 | Q 3.55 | E 3.71 | A 3.61 | P 3.74 | F 2.75 | C 2.66 | R 3.23 | W 2.82 | D 4.85 | M 3.63 | K 3.46 | N 3.65
M15: E 3.69 | R 2.24 | T 2.97 | Q 2.46 | Y 2.44 | F 1.87 | N 2.85 | C 1.97 | A 1.84 | S 2.21 | I 2.79 | D 3.02 | H 2.51
S12: N 3.27 | T 2.36 | K 2.18 | G 3.21 | I 3.58 | H 1.74 | Y 2.83 | D 3.84 | M 2.22 | P 3.76 | W 1.95 | F 2.76 | A 2.58

Variants of: B2
Assay: as above
Details: c terminus: a fixed tail appended

Protein stability index: each site, then its substitutions
S8: E 3.21 | D 3.62 | F 1.89 | K 3.34 | H 3.44 | A 3.23 | G 3.46 | C 2.29 | I 2.15
E1: T 2.47 | Q 2.76 | W 2.17 | R 2.44 | Y 2.23 | N 2.85 | S 2.65 | M 2.38 | I 2.09 | V 1.74 | D 3.56 | A 2.95 | H 3.29 | K 2.27 | C 2.61 | P 2.6 | L 2.75 | G 2.79 | F 1.99
D7: A 2.48 | L 1.89 | T 2.19 | E 3.14 | K 2.38 | Q 3.2 | I 1.93 | C 1.88 | V 1.96 | F 1.17 | H 2.98 | M 2.03 | S 2.47 | W 2.33 | N 2.19 | G 2.78 | P 2.67 | Y 2.18 | R 2.87
D3: I 1.97 | Q 2.23 | M 2.03 | R 2.34 | A 2.1 | V 2.51 | S 2.51 | C 1.69 | F 1.62 | Y 1.83 | H 2.17 | T 2.48 | L 2.02 | G 2.77 | N 2.87 | W 2.93 | K 2.58 | E 2.88 | P 1.98
E5: M 2.53 | R 2.63 | G 2.49 | C 2.76 | S 2.24 | D 3.42 | L 2.43 | K 2.6 | A 2.22 | T 3.5 | Y 2.27 | P 2.79 | Q 2.62 | I 2.29 | W 2.29 | H 2.62 | F 2.38 | N 3.12 | V 2.38
A2: F 2.58 | Q 2.36 | R 2.44 | H 2.51 | C 2.75 | D 3.53 | W 2.17 | Y 2.08 | K 2.89 | T 2.93 | M 2.44 | S 2.89 | G 2.71 | L 3.46 | I 2.99 | V 2.99 | N 3.41 | P 3.73 | E 3.63
D6: Y 1.86 | T 2.25 | G 2.38 | N 2.9 | E 2.88 | R 2.09 | C 2.68 | K 2.63 | Q 2.57 | M 1.75 | H 2.4 | W 1.83 | P 2.34 | F 2.04 | V 2.17 | A 2.21 | I 2.21 | S 2.7 | L 1.53
Y4: L 3.51 | H 3.35 | E 4.09 | P 4.15 | F 3.16 | R 3.42 | I 3.21 | G 3.61 | M 3.07 | S 3.65 | D 4.24 | K 3.96 | T 3.66 | Q 3.78 | C 3.27 | W 3.42 | V 3.18 | N 4.01 | A 3.76

From the supplement of paper PMC10567573
